Our source for the protein stability index values is the supplement of paper PMC10724198.

± gives the standard deviation of the averaged measurements.

Data set [1] has as its system Saccharomyces cerevisiae. Nature of the data set: protein stability index of tFT-peptide fusion (C-terminal peptide) (PSI (0-1 scale)); higher = more stable (slower turnover). As to the method: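 MPS profiling in S. cerevisiae of the tFT-X12 degron library: putative degron peptides plus stable controls, 12 aa, fused to the C-terminus of a sfGFP-mCherry timer. Cells are FACS-sorted into 8 mCherry/sfGFP bins and deep-sequenced. PSI runs from 0 (unstable) to 1 (stable). Backgrounds are wild type, das1Δ and doa10Δ at 30 °C, and wild type, das1Δ, cdc34-1 and cdc53-1 at 37 °C; 2-3 technical replicates each.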

The subject of data set [2] is Saccharomyces cerevisiae. The data set is described as above. The settings on record: genetic background: wild type; temperature: 30 C.
Where [3] appears, read: genetic background: cdc34-1, temperature: 37 C.
The mark [4] stands for this setting: genetic background: cdc53-1, temperature: 37 C.
Setting [5] is: genetic background: das1 deletion, temperature: 30 C.
[6] abbreviates: genetic background: das1 deletion, temperature: 37 C.
[7] abbreviates: genetic background: doa10 deletion, temperature: 30 C.
[8] abbreviates: genetic background: wild type, temperature: 30 C.
The mark [9] stands for this setting: genetic background: wild type, temperature: 37 C.
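Also: PSI is a weighted mean of sequencing reads over stability bins, variants kept only with over 10 reads, mCherry proximal and sfGFP distal, peptide attached via GGGS linker.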

Turning to FSLLTWPFVFLV, the protein stability index turned out to be 0.126 ± 0.021 in data set [1] (setting [3]); 0.0782 ± 0.0059 in data set [1] (setting [4]); 0.252 ± 0.041 in data set [1] (setting [5]); 0.346 ± 0.037 in data set [1] (setting [6]); 0.0816 ± 0.015 in data set [1] (setting [7]); 0.0575 ± 0.0078 in data set [1] (setting [8]). In addition, the values for the protein stability index in data set [1] (setting [9]) and in data set [2] were 0.0613 ± 0.011 and 0.08711 ± 0.00051, respectively.

For FVCWGSLILCGG, the protein stability index was 0.151 ± 0.0074 in data set [1] (setting [3]); 0.1833 ± 0.0012 in data set [1] (setting [4]); 0.19 ± 0.028 in data set [1] (setting [5]); 0.29 ± 0.0062 in data set [1] (setting [6]); 0.1516 ± 0.00087 in data set [1] (setting [7]); 0.181 ± 0.027 in data set [1] (setting [8]). Also, the protein stability index in data set [1] (setting [9]) is 0.258 ± 0.0085; in data set [2], 0.264 ± 0.012.

In the case of FVFAMSECIVLS, the protein stability index in data set [1] (setting [3]) was 0.269 ± 0.014; in data set [1] (setting [4]) it was 0.318 ± 0.0043; in data set [1] (setting [5]), 0.205 ± 0.025; in data set [1] (setting [6]), 0.393 ± 0.0046; in data set [1] (setting [7]) it was 0.269 ± 0.0044; in data set [1] (setting [8]), 0.214 ± 0.022. The values for the protein stability index in data set [1] (setting [9]) and in data set [2] were 0.364 ± 0.00049 and 0.308 ± 0.0053, respectively.

Turning to FVLWLIYVDLFF, the protein stability index in data set [1] (setting [3]) was 0.214 ± 0.039; in data set [1] (setting [4]), 0.234 ± 0.013; in data set [1] (setting [5]) it was 0.196 ± 0.048; in data set [1] (setting [6]), 0.342 ± 0.015; in data set [1] (setting [7]), 0.181 ± 0.019; in data set [1] (setting [8]), 0.22 ± 0.033. Besides, the protein stability index in data set [1] (setting [9]) is 0.339 ± 0.041; in data set [2] it was 0.287 ± 0.094.

As for FVSHRRFSLFLY, the protein stability index was determined as 0.584 ± 0.038 in data set [1] (setting [3]); 0.691 ± 0.011 in data set [1] (setting [4]); 0.602 ± 0.019 in data set [1] (setting [5]); 0.726 ± 0.046 in data set [1] (setting [6]); 0.124 ± 0.0019 in data set [1] (setting [7]); 0.143 ± 0.021 in data set [1] (setting [8]). Further, the protein stability index in data set [1] (setting [9]) was 0.203 ± 0.019; in data set [2], 0.209 ± 0.02.

As to FVVLVFMLGSVC, the protein stability index in data set [1] (setting [3]) worked out at 0.274 ± 0.035; in data set [1] (setting [4]), 0.379 ± 0.029; in data set [1] (setting [5]) it was 0.254 ± 0.044; in data set [1] (setting [6]), 0.454 ± 0.044; in data set [1] (setting [7]), 0.234 ± 0.0062; in data set [1] (setting [8]) it was 0.245 ± 0.049. Further, the protein stability index in data set [1] (setting [9]) is 0.426 ± 0.035; in data set [2], 0.365 ± 0.037.

FVVVGLGLLCLA: the protein stability index in data set [1] (setting [3]) came out at 0.492 ± 0.0066; in data set [1] (setting [4]), 0.565 ± 0.011; in data set [1] (setting [5]) it was 0.362 ± 0.027; in data set [1] (setting [6]), 0.569 ± 0.0068; in data set [1] (setting [7]) it was 0.257 ± 0.015; in data set [1] (setting [8]), 0.305 ± 0.02. Besides, the results for the protein stability index in data set [1] (setting [9]) and in data set [2] were 0.491 ± 0.014 and 0.473 ± 0.013, respectively.

For FVWVVRMLVFVP, the protein stability index worked out at 0.178 ± 0.0058 in data set [1] (setting [3]); 0.2493 ± 0.00099 in data set [1] (setting [4]); 0.187 ± 0.025 in data set [1] (setting [5]); 0.383 ± 0.023 in data set [1] (setting [6]); 0.165 ± 0.008 in data set [1] (setting [7]); 0.16 ± 0.025 in data set [1] (setting [8]). Also, the protein stability index in data set [1] (setting [9]) stood at 0.3 ± 0.0077; in data set [2] it was 0.276 ± 0.017.

Turning to FWHGRCPGLYLV, the protein stability index in data set [1] (setting [3]) was found to be 0.583 ± 0.11; in data set [1] (setting [4]), 0.639 ± 0.018; in data set [1] (setting [5]) it was 0.607 ± 0.012; in data set [1] (setting [6]), 0.7263 ± 0.0042; in data set [1] (setting [7]), 0.163 ± 0.009; in data set [1] (setting [8]), 0.169 ± 0.03. For the same sequence, the protein stability index in data set [1] (setting [9]) is 0.304 ± 0.005; in data set [2], 0.27 ± 0.0087.

For FYIRFYVYSWLF, the protein stability index was 0.376 ± 0.0093 in data set [1] (setting [3]); 0.441 ± 0.011 in data set [1] (setting [4]); 0.304 ± 0.051 in data set [1] (setting [5]); 0.492 ± 0.0077 in data set [1] (setting [6]); 0.278 ± 0.0083 in data set [1] (setting [7]); 0.303 ± 0.01 in data set [1] (setting [8]). Also, the protein stability index in data set [1] (setting [9]) was found to be 0.46 ± 0.0047; in data set [2], 0.3604 ± 0.0023.

For the sequence FYLSSCFLFLRF, the protein stability index in data set [1] (setting [3]) stood at 0.174 ± 0.052; in data set [1] (setting [4]), 0.136 ± 0.046; in data set [1] (setting [5]), 0.311 ± 0.012; in data set [1] (setting [6]) it was 0.33618 ± 0.0003; in data set [1] (setting [7]), 0.62 ± 0.04; in data set [1] (setting [8]), 0.288 ± 0.017. Moreover, the values for the protein stability index in data set [1] (setting [9]) and in data set [2] were 0.305 ± 0.023 and 0.355 ± 0.0087, respectively.

On to GAVRRWGGVSFV, for which the protein stability index in data set [1] (setting [3]) worked out at 0.626 ± 0.041; in data set [1] (setting [4]) it was 0.707 ± 0.026; in data set [1] (setting [5]) it was 0.643 ± 0.011; in data set [1] (setting [6]), 0.707 ± 0.032; in data set [1] (setting [7]), 0.662 ± 0.028; in data set [1] (setting [8]), 0.664 ± 0.0068. The protein stability index in data set [1] (setting [9]) stood at 0.679 ± 0.015; in data set [2], 0.259 ± 0.068.

With GDLEFCCLIIVL, the protein stability index in data set [1] (setting [3]) came out at 0.4401 ± 0.0033; in data set [1] (setting [4]), 0.556 ± 0.072; in data set [1] (setting [5]) it was 0.302 ± 0.018; in data set [1] (setting [6]), 0.5755 ± 0.005; in data set [1] (setting [7]) it was 0.27 ± 0.042; in data set [1] (setting [8]), 0.306 ± 0.032. Moreover, the protein stability index in data set [1] (setting [9]) stood at 0.5052 ± 0.0033; in data set [2], 0.321 ± 0.0098.

For GELPGELYKFWL, the protein stability index in data set [1] (setting [3]) was 0.769 ± 0.052; in data set [1] (setting [4]) it was 0.7774 ± 0.005; in data set [1] (setting [5]), 0.664 ± 0.022; in data set [1] (setting [6]) it was 0.7558 ± 0.0025; in data set [1] (setting [7]), 0.671 ± 0.024; in data set [1] (setting [8]), 0.671 ± 0.016. The protein stability index stood at 0.743 ± 0.021 in data set [1] (setting [9]) and 0.754 ± 0.03 in data set [2].

For the sequence GFFLLSFLFFVR, the protein stability index in data set [1] (setting [3]) came to 0.148 ± 0.0056; in data set [1] (setting [4]) it was 0.181 ± 0.037; in data set [1] (setting [5]) it was 0.212 ± 0.023; in data set [1] (setting [6]) it was 0.393 ± 0.034; in data set [1] (setting [7]) it was 0.234 ± 0.02; in data set [1] (setting [8]) it was 0.195 ± 0.021. In addition, the protein stability index in data set [1] (setting [9]) stood at 0.311 ± 0.007; in data set [2], 0.224 ± 0.032.
